Test results from patent US20190169638.

How the values were obtained:
[1] = test system: Sleeping Beauty transposase N123 (PAIRED DNA-binding domain, PAI+RED) (synthetic (Sleeping Beauty, reconstructed salmonid Tc1/mariner)?); test: EMSA; conditions: reference for CAST sequences
[2] = test system: Sleeping Beauty transposase SB10 (synthetic (Sleeping Beauty, reconstructed salmonid Tc1/mariner)?); test: cell_activity; conditions: transposition in HeLa

Sequence	binding signal [1] [fold]	activity (% of wild-type transposon) [2]
ACATACACTTAAGTGTATGTAAACTTCCGACTTCAACTTGG / GACTCCAAGTTGAAGTCGGAAGTTTACATACACTTAAGTGTATGT [14DR (outer DR) probe]	1	–
GTACATACACGCGCACTTCTGACCCACTGG (double strand) [pT/neo transposon with CAST-5/wt hybrid inner DRs]	–	130
GTGACGACCCCAAGTGTACATACACGCGCC (double strand) [pT/neo transposon with 12DRs replaced by CAST-5]	–	65
GTGACGACCCCAAGTGTACATACACGCGCC (double strand) [pT/neo transposon with 14DRs replaced by CAST-5]	–	3
GTGACGACCCCAAGTGTACATACACGCGCC (double strand) [pT/neo transposon with all four DRs CAST-5]	–	2.2
